From patent US20100150906A1 (AC IMMUNE S A, published 2010)
Blank lines part the entries; values can stand above or below the binder they belong to. No end group written: not given here.

Legend:
[1] = target: T1, amyloid beta 1-42 fibers (UniProt P05067 672-713); experiment: SPR (BIACORE), Aβ1-42 fibers immobilized on CM5 chip, antibody 0.05-1.0 µM
T1 construct: domain: amyloid beta 1-42; Many copies per fiber; also called Aβ1-42 fibers; fibrillar Aβ1-42
Protocol: BIACORE® technology utilizes changes in the refractive index at the surface layer upon binding of the antibody to the antigen immobilized on the layer. Binding is detected by surface plasmon resonance (SPR) of laser light refracting from the surface. Analysis of the signal kinetics on rate and off rate allows the discrimination between non-specific and specific interaction. The concentration of antibody used was in the range of 0.05 μM to 1.0 μM.

[2] = target: T2, peptide p14-22 A22 of the third library (E22 to alanine) (also: biotinylated, position not given here); experiment: ELISA on third peptide library, antibody at 10 µg/ml
T2 peptide: HQKLVFFAA
Protocol: (§1) Epitope mapping of the monoclonal antibody mACI-01-Ab7 C2 was performed by ELISA using three different peptide libraries. One library comprises a total of 33 biotinylated peptides covering the complete amino acid (aa) sequence of Aβ1-42 (produced by Mimotopes and purchased from ANAWA Trading SA), the second library contains biotinylated peptides using peptide 12 (aa12-20 of Aβ) from the first peptide library and substituting each amino acid in the sequence by an alanine (see […] below), and the third library contains biotinylated peptides 13, 14, or 15 (aa 13-21, 14-22 or 15-23 of Aβ) and substituting in each case the last amino acids to an alanine or to a glycine for aa 21 which is already an alanine (see table 5 below). A biotinylated complete Aβ1-42 peptide was used as positive control (Bachem). Epitope mapping was done according to the manufacturer's (Mimotopes) instructions. Briefly, Streptavidin coated plates (NUNC) were blocked with 0.1% BSA in PBS overnight at 4° C. After washing with PBS-0.05% Tween 20, plates were coated for 1 hour at RT with the different peptides from the library, diluted in 0.1% BSA, 0.1% Sodium Azide in PBS to a final concentration of 10 μM. After washing, plates were incubated for 1 hour at RT with the mACI-01-Ab7 C2 antibody or an isotype control mouse IgG2b antibody, diluted to 10 μg/ml in 2% BSA, 0.1% Sodium Azide in PBS. Plates were washed again and incubated with alkaline phosphatase conjugated goat anti mouse IgG for 1 h at RT.

[3] = target: T3, peptide p15-23 A23 of the third library (D23 to alanine) (also: biotinylated, position not given here); experiment: as above
T3 peptide: QKLVFFAEA
Protocol: as §1

[4] = target: T4, peptide p13-21 G21 of the third library (A21 to glycine) (also: biotinylated, position not given here); experiment: as above
T4 peptide: HHQKLVFFG
Protocol: as §1

[5] = target: T5, peptide 24 (also: biotinylated, site not given here); experiment: ELISA, biotinylated peptide on streptavidin plate, O.D. 405 nm [upper chart, Figure 1]
T5 construct: also called 24 on the axis Peptide number; first peptide library
T5 peptide: VGSNKGAII
Text: (§2) One library comprised a total of 33 biotinylated peptides covering the complete amino acid (aa) sequence of Aβ1-42 (produced by Mimotopes and purchased from ANAWA Trading SA), the second library contains biotinylated peptides using peptide 12 (aa12-20 of Aβ) from the first peptide library and substituting each aa in the sequence by an alanine (see table 8 below), and the third library contains biotinylated peptides 13, 14, or 15 (aa 13-21, 14-22 or 15-23 of Aβ) and substituting in each case the last amino acids to an alanine or to a glycine for aa 21 which is already an alanine (see table 9 below). A biotinylated complete Aβ1-42 peptide was used as positive control (Bachem). Epitope mapping was done according to the manufacturer's (Mimotopes) instructions. Briefly, Streptavidin coated plates (NUNC) were blocked with 0.1% BSA in PBS overnight at 4° C. After washing with PBS-0.05% Tween 20, plates were coated for 1 hour at RT with the different peptides from the library, diluted in 0.1% BSA, 0.1% Sodium Azide in PBS to a final concentration of 10 μM. […] Plates were washed again and incubated with alkaline phosphatase conjugated goat anti human IgG for 1 h at RT.

[6] = target: T6, peptide 23 (also: biotinylated, site not given here); experiment: as above
T6 construct: also called 23 on the axis Peptide number; first peptide library
T6 peptide: DVGSNKGAI
Text: as §2

[7] = target: T7, peptide 11 (also: biotinylated, site not given here); experiment: as above
T7 construct: also called 11 on the axis Peptide number; first peptide library
T7 peptide: EVHHQKLVF
Text: as §2

[8] = target: T8, peptide 9 (also: biotinylated, site not given here); experiment: as above
T8 construct: also called 9 on the axis Peptide number; first peptide library
T8 peptide: GYEVHHQKL
Text: as §2

[9] = target: T9, peptide 2 (also: biotinylated, site not given here); experiment: as above
T9 construct: also called 2 on the axis Peptide number; first peptide library
T9 peptide: AEFRHDSGY
Text: as §2

[10] = target: T10, peptide 30 (also: biotinylated, site not given here); experiment: as above
T10 construct: also called 30 on the axis Peptide number; first peptide library
T10 peptide: AIIGLMVGG
Text: as §2

[11] = target: T11, peptide 17 (also: biotinylated, site not given here); experiment: as above
T11 construct: also called 17 on the axis Peptide number; first peptide library
T11 peptide: LVFFAEDVG
Text: as §2

[12] = target: T12, peptide 18 (also: biotinylated, site not given here); experiment: as above
T12 construct: also called 18 on the axis Peptide number; first peptide library
T12 peptide: VFFAEDVGS
Text: as §2

[13] = target: T13, peptide 31 (also: biotinylated, site not given here); experiment: as above
T13 construct: also called 31 on the axis Peptide number; first peptide library
T13 peptide: IIGLMVGGV
Text: as §2

[14] = target: T14, peptide 32 (also: biotinylated, site not given here); experiment: as above
T14 construct: also called 32 on the axis Peptide number; first peptide library
T14 peptide: IGLMVGGVV
Text: as §2

T1 sequence (P05067 672-713 limits assumed): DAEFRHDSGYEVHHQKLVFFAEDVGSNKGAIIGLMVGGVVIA

- Kd [1]: 41 nM
- koff [1]: 0.00099 s⁻¹
- kon [1]: 24000 M⁻¹ s⁻¹
- binding result [2]: binds
- binding result [3]: binds
- binding result [4]: binds
B1: mouse monoclonal antibody ACI-01-Ab7C2 (antibody, V domains shown)
VH: EVQLVESGGGLVQPGGSLKLSCAASGFTFSSYGMSWVRQTPDKRLELVASINSNGGSTYYPDSVKGRFTISRDNAKNTLYLQMSSLKSEDTAMYYCASGDYWGQGSTLTVSS
VL: DVVMTQTPLSLPVSLGDQASISCRSSQSLVYSNGDTYLHWYLQKPGQSPKLLIYKVSNRFSGVPDRFSGSGSGTDFTLKISRVEAEDLGVYFCSQSTHVPWTFGGGTKLEIK
notes: also called mC2; mACI-01-Ab7 C2

B2: humanized anti-human amyloid beta monoclonal antibody hC2 (antibody, human IgG4 S228P, kappa, V domains shown)
VH: EVQLVESGGGLVQPGGSLRLSCAASGFTFSSYGMSWVRQAPGKGLELVASINSNGGSTYYPDSVKGRFTISRDNAKNSLYLQMNSLRAEDTAVYYCASGDYWGQGTTVTVSS
VL: DIVMTQSPLSLPVTPGEPASISCRSSQSLVYSNGDTYLHWYLQKPGQSPQLLIYKVSNRFSGVPDRFSGSGSGTDFTLKISRVEAEDVGVYYCSQSTHVPWTFGQGTKVEIKR
notes: also called humanized antibody C2; humanized C2
- binding result [5]: no binding (tested: 200 ng/ml (single concentration))
- binding result [6]: no binding (tested: 200 ng/ml (single concentration))
- binding result [7]: no binding (tested: 200 ng/ml (single concentration))
- binding result [8]: no binding (tested: 200 ng/ml (single concentration))
- binding result [9]: no binding (tested: 200 ng/ml (single concentration))
- binding result [10]: no binding (tested: 200 ng/ml (single concentration))
- binding result [11]: no binding (tested: 200 ng/ml (single concentration))
- binding result [12]: no binding (tested: 200 ng/ml (single concentration))
- binding result [13]: no binding (tested: 200 ng/ml (single concentration))
- binding result [14]: no binding (tested: 200 ng/ml (single concentration))
